US20060009520A1, “Retinoid-based methods for altering macrophage cholesterol” (priority 2004, published 2006)

What was measured:
apoCIII = conditions: transcriptional level; cited from earlier work
[1] = system: ABCA1-mediated cholesterol efflux from mouse peritoneal macrophages; assay: Cholesterol efflux to apoA-I from cholesterol-loaded macrophages; conditions: 1 and 5 μM ATRA
RARγ without RXRα = target: T1, RARγ without RXRα (Homo sapiens, UniProt P13631 P13631:1-454); assay: EMSA; complex only in presence of RXRα; data not shown; conditions: tags: TNT wheat germ; label: 32P
T1 sequence: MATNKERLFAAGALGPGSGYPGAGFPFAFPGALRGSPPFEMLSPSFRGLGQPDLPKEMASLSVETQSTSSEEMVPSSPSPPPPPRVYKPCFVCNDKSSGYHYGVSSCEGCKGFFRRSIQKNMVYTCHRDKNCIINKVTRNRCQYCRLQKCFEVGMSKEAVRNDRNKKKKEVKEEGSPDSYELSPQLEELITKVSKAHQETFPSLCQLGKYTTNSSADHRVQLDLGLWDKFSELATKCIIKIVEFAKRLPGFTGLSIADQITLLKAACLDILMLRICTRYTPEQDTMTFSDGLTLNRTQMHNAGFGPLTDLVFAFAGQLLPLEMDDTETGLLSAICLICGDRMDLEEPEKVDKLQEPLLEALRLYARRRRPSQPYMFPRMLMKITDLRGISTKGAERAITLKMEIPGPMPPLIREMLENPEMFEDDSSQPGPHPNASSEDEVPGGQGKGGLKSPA
Description: (§1) RARs and LXRα and RXRα proteins were in vitro translated by using the TNT-coupled wheat germ extract systems (Promega). Double-strand oligonucleotides corresponding to the wild-type ABCA1 DR4 element 5′-[…]-3′ and the mutated sequence 5′-[…]-3′ were used, and electrophoresis mobility shift assays (EMSAs) were done with ³²P-labeled probes as described previously (6). For competition experiments, a 30-fold molar excess of cold unlabeled competitor DNA relative to labeled DNA was used. […] The oligonucleotides 5′-[…]-3′ and 5′-[…]-3′ were, respectively, used in EMSA analysis of DR4 elements a and b of the murine SREBP-1c promoter.
(§2) To further assess the possibility of a direct interaction between RARγ and the human ABCA1 promoter, a gel shift assay by using oligonucleotides consisting of the DR4 element was carried out. […] It was also determined whether RARα and RARβ could bind the ABCA1 DR4 element.

RARα without RXRα = target: T2, RARα without RXRα (Homo sapiens, UniProt P10276 P10276:1-462); assay: as above; conditions: tags: TNT wheat germ; label: 32P
T2 sequence: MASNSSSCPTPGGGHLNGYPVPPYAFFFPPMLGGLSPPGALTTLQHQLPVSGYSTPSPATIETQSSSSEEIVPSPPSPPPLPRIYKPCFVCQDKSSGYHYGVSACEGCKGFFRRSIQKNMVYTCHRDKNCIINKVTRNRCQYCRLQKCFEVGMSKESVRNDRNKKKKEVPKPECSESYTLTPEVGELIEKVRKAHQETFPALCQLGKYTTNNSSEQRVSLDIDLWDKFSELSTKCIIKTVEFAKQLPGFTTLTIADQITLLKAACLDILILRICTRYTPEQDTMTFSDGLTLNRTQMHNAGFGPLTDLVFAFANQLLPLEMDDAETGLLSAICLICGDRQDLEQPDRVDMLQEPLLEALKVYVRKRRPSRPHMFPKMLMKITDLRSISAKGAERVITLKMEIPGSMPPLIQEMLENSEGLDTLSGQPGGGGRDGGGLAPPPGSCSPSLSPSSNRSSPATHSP
Description: as §1, §2

RARβ without RXRα = target: T3, RARβ without RXRα (Homo sapiens, UniProt P10826 P10826:1-455); assay: as above; conditions: tags: TNT wheat germ; label: 32P
T3 sequence: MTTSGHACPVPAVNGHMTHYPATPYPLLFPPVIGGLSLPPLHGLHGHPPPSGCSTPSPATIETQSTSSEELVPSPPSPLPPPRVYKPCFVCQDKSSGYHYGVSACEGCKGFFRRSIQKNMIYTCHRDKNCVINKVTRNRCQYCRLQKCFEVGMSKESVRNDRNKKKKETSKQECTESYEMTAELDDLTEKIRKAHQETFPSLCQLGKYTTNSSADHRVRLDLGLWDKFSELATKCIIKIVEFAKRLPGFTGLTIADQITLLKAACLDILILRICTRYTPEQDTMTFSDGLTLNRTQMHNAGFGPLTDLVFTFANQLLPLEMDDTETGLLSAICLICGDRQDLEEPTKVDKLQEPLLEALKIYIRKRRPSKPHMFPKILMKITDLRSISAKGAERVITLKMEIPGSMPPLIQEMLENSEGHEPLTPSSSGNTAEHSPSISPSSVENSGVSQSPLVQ
Description: as §1, §2

RARα/RXRα heterodimer [2] = target: T4, RARα/RXRα heterodimer (Homo sapiens, UniProt P10276;P19793 P10276:1-462,P19793:1-462); assay: EMSA; data not shown; conditions: tags: TNT wheat germ; label: 32P
Description: as §1, §2

RARβ/RXRα heterodimer [3] = target: T5, RARβ/RXRα heterodimer (Homo sapiens, UniProt P10826;P19793 P10826:1-455,P19793:1-462); assay: EMSA; data not shown; conditions: tags: TNT wheat germ; label: 32P
Description: as §1, §2

RARγ/RXRα heterodimer [4] = target: T6, RARγ/RXRα heterodimer (Homo sapiens, UniProt P13631;P19793 P13631:1-454,P19793:1-462); assay: EMSA; supershift with anti-RXRα and anti-RARγ; competed by 30-fold cold wild-type DR4; conditions: tags: TNT wheat germ; pCMX-hRARγ, pCMX-hRXRα; label: 32P
Description: as §1, §2

RARα/RXRα heterodimer [5] = target: T4, RARα/RXRα heterodimer; assay: EMSA; not shown; conditions: tags: TNT wheat germ; label: 32P
Description: as §1

RARβ/RXRα heterodimer [6] = target: T5, RARβ/RXRα heterodimer; assay: EMSA; not shown; conditions: tags: TNT wheat germ; label: 32P
Description: as §1

RARγ/RXRα heterodimer [7] = target: T6, RARγ/RXRα heterodimer; assay: EMSA; neither bound nor competed with ABCA1 DR4; conditions: tags: TNT wheat germ; pCMX-hRARγ, pCMX-hRXRα; label: 32P
Description: as §1

RARγ/RXRα heterodimer [8] = target: T6, RARγ/RXRα heterodimer; assay: EMSA; neither bound nor competed with ABCA1 DR4; conditions: tags: TNT wheat germ; pCMX-hRARγ, pCMX-hRXRα; label: 32P; remark: listed apart in the source

T6 sequence (P19793 whole entry, one chain of several): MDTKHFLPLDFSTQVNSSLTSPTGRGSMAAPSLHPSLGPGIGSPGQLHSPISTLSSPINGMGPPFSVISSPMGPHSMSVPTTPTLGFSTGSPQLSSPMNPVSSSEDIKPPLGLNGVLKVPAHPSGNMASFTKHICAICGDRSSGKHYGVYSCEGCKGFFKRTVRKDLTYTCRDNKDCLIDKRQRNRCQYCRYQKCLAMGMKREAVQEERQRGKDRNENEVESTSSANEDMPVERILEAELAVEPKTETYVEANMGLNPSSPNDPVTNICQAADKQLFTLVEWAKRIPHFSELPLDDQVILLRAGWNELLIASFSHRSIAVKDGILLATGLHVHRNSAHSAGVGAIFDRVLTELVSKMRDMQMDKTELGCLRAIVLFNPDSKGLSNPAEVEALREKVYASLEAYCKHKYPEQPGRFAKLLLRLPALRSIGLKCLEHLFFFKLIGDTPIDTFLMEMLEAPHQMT
T4 sequence (P19793 whole entry, one chain of several): as above
T5 sequence (P19793 whole entry, one chain of several): as above

For `CC1=C(/C=C/C(C)=C/C=C/C(C)=C\C(=O)O)C(C)(C)CCC1` [13-cRA, isotretinoin], which “hepatic apoCIII expression” value (apoCIII) is on record?
The value was “increases hepatic apoCIII expression”.

For `O=S(=O)(c1ccccc1)N(CC(F)(F)F)c1ccc(C(O)(C(F)(F)F)C(F)(F)F)cc1` [TO-901317], which “increase in cholesterol efflux to apoA-I, ATRA compared with TO-901317” value [1] is on record?
The value was “comparable increase in cholesterol efflux to apoA-I”.

B1: ABCA1 DR4 element (dsDNA)
DNA 1: ACTGGGCTTTGACCGATAGTAACCTCTGCGCTCG
DNA 2: CGAGCGCAGAGGTTACTATCGGTCAAAGCCCAGT
Does B1 bind (RARγ without RXRα)?
Result: no binding

Does B1 bind (RARα without RXRα)?
Result: no binding

Does B1 bind (RARβ without RXRα)?
Result: no binding

Does B1 bind (RARα/RXRα heterodimer [2])?
Result: binds

Does B1 bind (RARβ/RXRα heterodimer [3])?
Result: binds

Does B1 bind (RARγ/RXRα heterodimer [4])?
Result: binds

B2: SREBP-1c DR4 element a (dsDNA)
DNA 1: ACTGCAGTGACCGCCAGTAACCCCAGC
DNA 2: GCTGGGGTTACTGGCGGTCACTGCAGT
Which results are given for B2?
binding result (RARα/RXRα heterodimer [5]): no binding; binding result (RARβ/RXRα heterodimer [6]): no binding; binding result (RARγ/RXRα heterodimer [7]): no binding

B3: SREBP-1c DR4 element b (dsDNA)
DNA 1: ACTGGGACGCCCGCTAGTAACCCCGGC
DNA 2: GCCGGGGTTACTAGCGGGCGTCCCAGT
Does B3 bind (RARα/RXRα heterodimer [5])?
Result: no binding

Does B3 bind (RARβ/RXRα heterodimer [6])?
Result: no binding

Does B3 bind (RARγ/RXRα heterodimer [8])?
Result: no binding
